The numbers were not newly measured in publication PMC11264262, which cites them from elsewhere.

The target of one data set is Glu73 (UniProt position 107, IFSNREGKLPG). Conditions: folded protein.
The next data set deals with His200 (UniProt position 200, RKGTVHDTALT).

Broadly, the pKa is the pH at which an ionisable group is half protonated. With “Barnase (Bacillus amyloliquefaciens (inferred; organism not stated in the article))”, in the data set with Glu73, the pKa is 2.1. Consider “Homoprotocatechuate 2,3-dioxygenase (HPCD) (Brevibacterium fuscum (inferred; organism not stated in the article))”, for which the pKa result in the data set with His200 was “ca. 7.65”.
